Measured values reported in US9994628B2, “Peptides and combination of peptides for use in immunotherapy against various tumors” (IMMATICS BIOTECHNOLOGIES GMBH, priority 2015, dated 2018).

Target: HLA-A*02:01 (Homo sapiens, UniProt P04439, D140Y/D185E/D98H/E176V/E277Q/G131W/G231S/I119V/I121R/I166T/I218V/L300P/L318F/N151K/N90K/P208A/P217A/Q86G/Q94H/R138H/R169H/T345S)
Experiment: MHC binding assay: UV-ligand exchange and β2m ELISA (peptide exchange yield, Table 7)
Details: binding of HLA-class I restricted peptides to HLA-A*02:01, UV-ligand exchange
Excerpt: Candidate peptides for T cell based therapies according to the present invention were further tested for their MHC binding capacity (affinity). The individual peptide-MHC complexes were produced by UV-ligand exchange, where a UV-sensitive peptide is cleaved upon UV-irradiation, and exchanged with the peptide of interest as analyzed. Only peptide candidates that can effectively bind and stabilize the peptide-receptive MHC molecules prevent dissociation of the MHC complexes. To determine the yield of the exchange reaction, an ELISA was performed based on the detection of the light chain (β2 m) of stabilized MHC complexes. The assay was performed as generally described in Rodenko et al. (Rodenko et al., 2006).
96 well MAXISorp plates (NUNC) were coated over night with 2 ug/ml streptavidin in PBS at room temperature, washed 4× and blocked for 1 h at 37° C. in 2% BSA containing blocking buffer. Refolded HLA-A*02:01/MLA-001 monomers served as standards, covering the range of 15-500 ng/ml. Peptide-MHC monomers of the UV-exchange reaction were diluted 100 fold in blocking buffer. Samples were incubated for 1 h at 37° C., washed four times, incubated with 2 ug/ml HRP conjugated anti-β2 m for 1 h at 37° C., washed again and detected with TMB solution that is stopped with […]. Absorption was measured at 450 nm. Candidate peptides that show a high exchange yield (preferably higher than 50%, most preferred higher than 75%) are generally preferred for a generation and production of antibodies or fragments thereof, and/or T cell receptors or fragments thereof, as they show sufficient avidity to the MHC molecules and prevent dissociation of the MHC complexes.

Row | Peptide exchange (MHC class I binding score, peptide exchange yield) | Substance
1 | ++ (≥20% = ++) | 74 (GLAFLPASV; listed as Homo sapiens) [compound 74]
2 | +++ (≥50% = +++) | 75 (ALLDGALQL; listed as Homo sapiens) [compound 75]
3 | +++ (≥50% = +++) | 76 (FTAEFLEKV; listed as Homo sapiens) [compound 76]
4 | +++ (≥50% = +++) | 77 (ALYGNVQQV; listed as Homo sapiens) [compound 77]
5 | ++ (≥20% = ++) | 79 (TVLEEIGNRV; listed as Homo sapiens) [compound 79]
6 | +++ (≥50% = +++) | 80 (VLTGQVHEL; listed as Homo sapiens) [compound 80]
7 | ++ (≥20% = ++) | 81 (ILAEEPIYI; listed as Homo sapiens) [compound 81]
8 | +++ (≥50% = +++) | 82 (ILAEEPIYIRV; listed as Homo sapiens) [compound 82]
9 | ++ (≥20% = ++) | 83 (GLLENSPHL; listed as Homo sapiens) [compound 83]
10 | ++++ (≥75% = ++++) | 84 (FLLEREQLL; listed as Homo sapiens) [compound 84]
11 | ++ (≥20% = ++) | 85 (KLLDKPEQFL; listed as Homo sapiens) [compound 85]
12 | +++ (≥50% = +++) | 86 (SLFSNIESV; listed as Homo sapiens) [compound 86]
13 | +++ (≥50% = +++) | 87 (KLLSLLEEA; listed as Homo sapiens) [compound 87]
14 | +++ (≥50% = +++) | 88 (LLLPLELSLA; listed as Homo sapiens) [compound 88]
15 | +++ (≥50% = +++) | 89 (SLAETIFIV; listed as Homo sapiens) [compound 89]
16 | ++ (≥20% = ++) | 90 (AILNVDEKNQV; listed as Homo sapiens) [compound 90]
17 | ++ (≥20% = ++) | 91 (LLPSIFLMV; listed as Homo sapiens) [compound 91]
18 | ++++ (≥75% = ++++) | 92 (RLFEEVLGV; listed as Homo sapiens) [compound 92]
19 | ++ (≥20% = ++) | 93 (RLYGYFHDA; listed as Homo sapiens) [compound 93]
20 | +++ (≥50% = +++) | 94 (YLDEVAFML; listed as Homo sapiens) [compound 94]
21 | +++ (≥50% = +++) | 95 (KLIDEDEPLFL; listed as Homo sapiens) [compound 95]
22 | ++ (≥20% = ++) | 96 (ALDTTRHEL; listed as Homo sapiens) [compound 96]
23 | +++ (≥50% = +++) | 97 (KLFEKSTGL; listed as Homo sapiens) [compound 97]
24 | +++ (≥50% = +++) | 98 (FVQEKIPEL; listed as Homo sapiens) [compound 98]
25 | +++ (≥50% = +++) | 99 (TLFGIQLTEA; listed as Homo sapiens) [compound 99]
26 | +++ (≥50% = +++) | 100 (ALQSFEFRV; listed as Homo sapiens) [compound 100]

Row | Peptide exchange (MHC class I binding score, peptide exchange yield) | Substance
27 | +++ (≥50% = +++) | 101 (SLLEVNEASSV; listed as Homo sapiens) [compound 101]
28 | +++ (≥50% = +++) | 102 (GLYPVTLVGV; listed as Homo sapiens) [compound 102]
29 | ++ (≥20% = ++) | 103 (YLADTVQKL; listed as Homo sapiens) [compound 103]
30 | ++ (≥20% = ++) | 105 (AMLASQTEA; listed as Homo sapiens) [compound 105]
31 | ++ (≥20% = ++) | 106 (VLLGSVVIFA; listed as Homo sapiens) [compound 106]
32 | ++ (≥20% = ++) | 107 (RVLPGQAVTGV; listed as Homo sapiens) [compound 107]
33 | +++ (≥50% = +++) | 108 (FIANLPPELKA; listed as Homo sapiens) [compound 108]
34 | +++ (≥50% = +++) | 109 (ILGSFELQL; listed as Homo sapiens) [compound 109]
35 | ++ (≥20% = ++) | 110 (QIQGQVSEV; listed as Homo sapiens) [compound 110]
36 | +++ (≥50% = +++) | 111 (AQLEGKLVSI; listed as Homo sapiens) [compound 111]
37 | +++ (≥50% = +++) | 112 (ILAQDVAQL; listed as Homo sapiens) [compound 112]
38 | ++ (≥20% = ++) | 113 (FLFLKEVKV; listed as Homo sapiens) [compound 113]
39 | ++ (≥20% = ++) | 114 (LLFPSDVQTL; listed as Homo sapiens) [compound 114]
40 | ++ (≥20% = ++) | 115 (ILHGEVNKV; listed as Homo sapiens) [compound 115]
41 | ++ (≥20% = ++) | 116 (ALLSSVAEA; listed as Homo sapiens) [compound 116]
42 | ++ (≥20% = ++) | 117 (TLLEGISRA; listed as Homo sapiens) [compound 117]
43 | ++ (≥20% = ++) | 119 (SLIEESEEL; listed as Homo sapiens) [compound 119]
44 | ++ (≥20% = ++) | 121 (ALYVQAPTV; listed as Homo sapiens) [compound 121]
45 | +++ (≥50% = +++) | 122 (SIIDTELKV; listed as Homo sapiens) [compound 122]
46 | + (≥10% = +) | 123 (QTAPEEAFIKL; listed as Homo sapiens) [compound 123]
47 | ++ (≥20% = ++) | 124 (ALLLRLFTI; listed as Homo sapiens) [compound 124]
48 | +++ (≥50% = +++) | 125 (AALEVLAEV; listed as Homo sapiens) [compound 125]
49 | +++ (≥50% = +++) | 126 (QLREAFEQL; listed as Homo sapiens) [compound 126]
50 | ++ (≥20% = ++) | 128 (SILTNISEV; listed as Homo sapiens) [compound 128]
51 | ++ (≥20% = ++) | 129 (KMASKVTQV; listed as Homo sapiens) [compound 129]
